In general, Kd refers to the concentration at which binding is half-saturated. A higher Kd goes with weaker binding.

Changes are numbered by the printed parent chain.

Sequences and labels used below:
B1: BCMA targeting trispecific protein 01F03 (other)
VHH: EVQLVESGGGLVQPGRSLTLSCAASTNIFSESPMGWYRQAPGKQRELVAAIHGNSTLYADSVKGRFTISRDNAKNSIYLQMNSLRPEDTALYYCNKVPWGTYHPRNVYWGQGTQVTVSS
notes: trispecific; not shown: the C-terminal 6xHis tag follows those domains and is left out
B2: BCMA targeting trispecific protein 02C05 (other)
VHH: B1 VHH with N54F, S55T, T101D, Y108T
notes: trispecific; not shown: anti-albumin domain, anti-CD3 domain and the linkers of the trispecific (TriTAC) chain; the C-terminal 6xHis tag follows these missing domains and is left out
B3: BCMA targeting trispecific protein 02A05 (other, not shown: large carriers; small tags and cut ends)
VHH: B1 VHH with F29A, E31I, N54K, T101D, R105G
notes: trispecific
B4: BCMA targeting trispecific protein 02F07 (other)
VHH: B1 VHH with F29E, E31I, N54F, T101D, R105G
notes: trispecific; not shown: the C-terminal His6 follows those missing domains and is left out
B5: BCMA targeting trispecific protein 01G10 (other, not shown: large carriers; small tags and cut ends)
VHH: B1 VHH with I28E, E31I, N54L, T101A
notes: trispecific
B6: BCMA targeting trispecific protein 02C06 (other, not shown: large carriers; small tags and cut ends)
VHH: B1 VHH with E31T, N54T, T101D, R105G
notes: trispecific
B7: BCMA targeting trispecific protein 01G09 (other)
VHH: B1 VHH with S30N, E31I, N54F, L57Y, T101R
notes: trispecific; not shown: anti-albumin domain, anti-CD3 domain and the linkers of the trispecific; the C-terminal His6 that follows them is left out
B8: BCMA targeting trispecific protein 02B01 (other, not shown: large carriers; small tags and cut ends)
VHH: B1 VHH with E31N, N54R, T101D, Y108M
notes: trispecific
B9: BCMA targeting trispecific protein 01H10 (other)
VHH: B1 VHH with F29P, E31I, N54E, T101D
notes: trispecific; not shown: The C-terminal 6xHis tag is left out because it follows these missing domains
B10: BCMA targeting trispecific protein 02A04 (other)
VHH: B1 VHH with E31Q, N54K, T101D, R105S, Q111K
notes: as for B9
B11: BCMA targeting trispecific protein 02A07 (other, not shown: large carriers; small tags and cut ends)
VHH: B1 VHH with E31K, T101D, N106E
notes: trispecific
B12: BCMA targeting trispecific protein 01F08 (other)
VHH: B1 VHH with F29T, E31V, N54P, T101D, R105T
notes: as for B1
B13: BCMA targeting trispecific protein 01H04 (other)
VHH: B1 VHH with E31K, N54Q, T101D, Y108T
notes: trispecific; not shown: anti-albumin domain, anti-CD3 domain and the linkers of the trispecific (TriTAC) format
B14: BCMA targeting trispecific protein 01H11 (other, not shown: large carriers; small tags and cut ends)
VHH: B1 VHH with A23V, E31T, N54F, T101D, R105G
notes: trispecific
B15: BCMA targeting trispecific protein 02E09 (other, not shown: large carriers; small tags and cut ends)
VHH: B1 VHH with I28D, E31I, N54G, T101D, Y108A
notes: trispecific
B16: BCMA targeting trispecific protein 02F12 (other, not shown: large carriers; small tags and cut ends)
VHH: B1 VHH with F29E, E31I, N54T, T101D, R105G
notes: trispecific
B17: BCMA targeting trispecific protein 02B04 (other)
VHH: B1 VHH with E31T, N54F, L57I, T101D, R105L
notes: trispecific; not shown: the C-terminal 6xHis tag follows those missing domains and is left out
B18: BCMA targeting trispecific protein 02B12 (other, not shown: large carriers; small tags and cut ends)
VHH: B1 VHH with F29S, E31I, N54F, S55D, T101D
notes: trispecific
B19: BCMA targeting trispecific protein 02F03 (other, not shown: large carriers; small tags and cut ends)
VHH: B1 VHH with E31I, S32Y, N54S, T101D, R105K
notes: trispecific
B20: BCMA targeting trispecific protein 02E03 (other)
VHH: B1 VHH with E31N, N54P, T101D, Y108T
notes: as for B2
B21: BCMA targeting trispecific protein 02G01 (other)
VHH: B1 VHH with E31I, S32N, N54F, S55D, T101D, Y108S
notes: as for B17
B22: BCMA targeting trispecific protein 01F12 (other)
VHH: B1 VHH with S30R, E31I, N54D, T101R
notes: as for B7
B23: BCMA targeting trispecific protein 02C03 (other)
VHH: B1 VHH with F29A, E31I, N54S, T101D, R105G
notes: as for B4
B24: BCMA targeting trispecific protein 01F04 (other)
VHH: B1 VHH with F29D, E31I, N54F, S55Q, T101D, R105G
notes: as for B4
B25: BCMA targeting trispecific protein 02C01 (other)
VHH: B1 VHH with F29I, E31I, N54A, T101D, R105G
notes: as for B7
B26: BCMA targeting trispecific protein 01F09 (other)
VHH: B1 VHH with F29S, E31I, N54H, T101R
notes: as for B7
B27: BCMA targeting trispecific protein 01F05 (other)
VHH: B1 VHH with E31S, N54F, L57W, T101R
notes: as for B9
B28: BCMA targeting trispecific protein 02F06 (other, not shown: large carriers; small tags and cut ends)
VHH: B1 VHH with E31I, S32T, N54E, T101R
notes: trispecific
B29: BCMA targeting trispecific protein 01H05 (other, not shown: large carriers; small tags and cut ends)
VHH: B1 VHH with E31I, S32T, N54T, T101R
notes: trispecific
B30: BCMA targeting trispecific protein 02A08 (other, not shown: large carriers; small tags and cut ends)
VHH: B1 VHH with E31R, N54E, T101R, R105G
notes: trispecific
B31: BCMA targeting trispecific protein 01G06 (other, not shown: large carriers; small tags and cut ends)
VHH: B1 VHH with E31R, N54F, S55E, T101D, Y108L
notes: trispecific
B32: BCMA targeting trispecific protein 02D11 (other)
VHH: B1 VHH with I28E, E31I, N54E, T101D, R105G
notes: as for B4
B33: BCMA targeting trispecific protein 01G01 (other)
VHH: B1 VHH with F29V, E31I, N54D, T101D, N106R
notes: as for B17
B34: BCMA targeting trispecific protein 01H01 (other, not shown: large carriers; small tags and cut ends)
VHH: B1 VHH with F29G, E31I, N54Q, T101D, R105Q
notes: trispecific
B35: BCMA targeting trispecific protein 01F10 (other)
VHH: B1 VHH with T26S, E31I, N54E, T101D, Y108T
notes: as for B17
B36: BCMA targeting trispecific protein 02B07 (other)
VHH: B1 VHH with E31S, N54H, T101D, Y108T
notes: as for B13
B37: BCMA targeting trispecific protein 02B11 (other)
VHH: B1 VHH with F29V, E31I, N54D, T101D, Y108S
notes: as for B13
B38: BCMA targeting trispecific protein 01H09 (other)
VHH: B1 VHH with F29M, E31I, T101D, R105G
notes: as for B4
B39: BCMA targeting trispecific protein 02F05 (other, not shown: large carriers; small tags and cut ends)
VHH: B1 VHH with E31V, T101K
notes: trispecific
B40: BCMA targeting trispecific protein 02A11 (other)
VHH: B1 VHH with I28H, E31I, N54S, T101D, N106V
notes: trispecific; also called 02All; not shown: the C-terminal 6xHis tag follows those domains and is left out
B41: BCMA targeting trispecific protein 01G11 (other, not shown: large carriers; small tags and cut ends)
VHH: B1 VHH with F29P, E31I, N54A, T101D, Y108A
notes: trispecific
B42: BCMA targeting trispecific protein 02F11 (other)
VHH: B1 VHH with E31T, N54T, T101D, Y108Q
notes: as for B13
B43: BCMA targeting trispecific protein 01G04 (other, not shown: large carriers; small tags and cut ends)
VHH: B1 VHH with F29D, E31I, T101D, N106M
notes: trispecific
B44: BCMA targeting trispecific protein 02D06 (other, not shown: large carriers; small tags and cut ends)
VHH: B1 VHH with F29S, E31I, N54F, L57V, T101R
notes: trispecific

One test concerns the target T1, human BCMA on BCMA expressing cell lines (human, UniProt Q02223 1-184).
T1 sequence: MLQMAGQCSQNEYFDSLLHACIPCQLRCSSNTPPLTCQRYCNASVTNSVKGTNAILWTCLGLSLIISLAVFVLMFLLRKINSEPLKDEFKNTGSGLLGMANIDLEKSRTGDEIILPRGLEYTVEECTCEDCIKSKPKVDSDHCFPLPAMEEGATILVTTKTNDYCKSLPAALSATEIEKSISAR
In words: cell-based or functional assay.
For B1, the “TDCC EC50 (EJM cells)” value stood at 76.4 pM.
B2: the “TDCC EC50 (EJM cells)” value is 16.2 pM.
As for B3, the “TDCC EC50 (EJM cells)” value was found to be 4.21 pM.
Consider B4, for which the “TDCC EC50 (EJM cells)” value stood at 2.59 pM.
As for B5, the “TDCC EC50 (EJM cells)” value is 143 pM.
Regarding B6, the “TDCC EC50 (EJM cells)” value was 1.95 pM.
Same read-out and setting: to B7 belongs 441 pM; to B8, 51.8 pM; to B9, 35.2 pM.
The same measure, in the same setting: to B10 belongs 38.2 pM; to B11, 27.9 pM; to B12, 71.2 pM.
For B13, the “TDCC EC50 (EJM cells)” value stood at 14.7 pM.
On the same count and under the same terms, with B14 the figure was 3.17 pM; with B15, 31.1 pM.
Still for that read-out and setting: with B16 the figure was 3.14 pM; with B17, 11.3 pM.
Still for that read-out and setting: to B18 belongs 124 pM.
Consider B19, for which the “TDCC EC50 (EJM cells)” value was determined as 24.5 pM.
In the case of B20, the “TDCC EC50 (EJM cells)” value was determined as 16.5 pM.
Same read-out and setting: with B21 the figure was 10.8 pM.
Still for that read-out and setting: with B22 the figure was 392 pM; with B23, 2.52 pM.
On to B24, for which the “TDCC EC50 (EJM cells)” value amounted to 2.21 pM.
The same measure, in the same setting: to B25 belongs 1.55 pM.
B26: the “TDCC EC50 (EJM cells)” value amounted to 945 pM.
In the case of B27, the “TDCC EC50 (EJM cells)” value was 37.2 pM.
The same measure, in the same setting: to B28 belongs 19.3 pM.
B29: the “TDCC EC50 (EJM cells)” value was found to be 45.4 pM.
Take B30: the “TDCC EC50 (EJM cells)” value is 20.1 pM.
Same read-out and setting: with B31 the figure was 19.2 pM; with B32, 2.35 pM.
As to B33, the “TDCC EC50 (EJM cells)” value amounted to 5.83 pM.
Take B34: the “TDCC EC50 (EJM cells)” value worked out at 118 pM.
For the molecule B35, the “TDCC EC50 (EJM cells)” value was found to be 7.44 pM.
As to B36, the “TDCC EC50 (EJM cells)” value is 14.2 pM.
Still for that read-out and setting: to B37 belongs 14.4 pM; to B38, 2.21 pM.
B39: the “TDCC EC50 (EJM cells)” value was 3 pM.
On the same count and under the same terms, with B40 the figure was 60.6 pM; with B41, 3.98 pM.
As to B42, the “TDCC EC50 (EJM cells)” value was found to be 15.2 pM.
For B43, the “TDCC EC50 (EJM cells)” value was 24.1 pM.
For B44, the “TDCC EC50 (EJM cells)” value stood at 42.8 pM.

In a further test the target is T2, human BCMA protein (human, UniProt Q02223 1-54, limits assumed).
T2 sequence: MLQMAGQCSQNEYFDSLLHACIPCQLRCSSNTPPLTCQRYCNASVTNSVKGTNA
In words: affinity to human BCMA protein, method not stated.
Turning to B1, the Kd is 15 nM.
On to B2, for which the Kd was found to be 15.6 nM.
Still for that read-out and setting: with B3 the figure was 7.06 nM.
On the same count and under the same terms, to B4 belongs 7.06 nM.
Same read-out and setting: to B5 belongs 41.9 nM; to B6, 6.9 nM; to B7, 87.8 nM.
B8: the equilibrium dissociation constant (Kd) is 21.4 nM. Against the preceding molecule, the Kd is about 4.1-fold lower.
In the case of B9, binding was put at a Kd of 24.8 nM.
Molecule B10 came in with an equilibrium dissociation constant (Kd) of 17.6 nM. This Kd and that of the molecule before are within 1.5-fold of each other.
Same read-out and setting: with B11 the figure was 18.4 nM; with B12, 21.4 nM.
Still for that read-out and setting: to B13 belongs 17.4 nM; to B14, 7.06 nM.
Same read-out and setting: to B15 belongs 20.9 nM.
B16 gave a Kd of 7.76 nM.
Same read-out and setting: with B17 the figure was 15.2 nM; with B18, 25.2 nM; with B19, 25.7 nM.
On the same count and under the same terms, with B20 the figure was 16.8 nM; with B21, 16.3 nM.
Still for that read-out and setting: with B22 the figure was 40.5 nM; with B23, 7.09 nM; with B24, 6.55 nM.
Molecule B25 gave a dissociation constant Kd of 5.31 nM. This Kd and that of the molecule before are within 1.5-fold of each other.
As to B26, the equilibrium dissociation constant (Kd) is 52.8 nM. Compared with the last molecule, the Kd is about 9.9-fold higher.
B27 displayed an equilibrium dissociation constant (Kd) of 16.7 nM.
On the same count and under the same terms, with B28 the figure was 21.9 nM; with B29, 27.4 nM; with B30, 9.51 nM.
B31 yielded a Kd of 17 nM.
B32 gave an equilibrium dissociation constant (Kd) of 6.71 nM.
Molecule B33 gave a dissociation constant (Kd) of 14.6 nM.
On the same count and under the same terms, to B34 belongs 35.9 nM; to B35, 14.4 nM.
In turn, B36 came in with a Kd of 15.8 nM. The Kd values of the last two molecules are within 1.5-fold of each other.
As to B37, the affinity, expressed as Kd, was 13.3 nM.
Still for that read-out and setting: to B38 belongs 5.44 nM; to B39, 7.15 nM.
Molecule B40 registered a dissociation constant Kd of 25.2 nM.
For the molecule B41, the Kd is 9.7 nM.
Same read-out and setting: with B42 the figure was 20 nM; with B43, 11.7 nM; with B44, 23.3 nM.

Source of the values: patent publication US20240327534A1 (HARPOON THERAPEUTICS, published 2024).
